One assay addresses T1, VEGF (human, UniProt P15692 27-191).
T1 chain: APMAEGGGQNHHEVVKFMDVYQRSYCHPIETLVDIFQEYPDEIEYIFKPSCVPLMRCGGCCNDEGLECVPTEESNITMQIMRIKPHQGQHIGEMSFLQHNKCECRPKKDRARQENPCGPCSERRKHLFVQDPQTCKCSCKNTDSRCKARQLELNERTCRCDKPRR
Description: Biacore. For orientation: In SPR one partner is held on a chip, and binding of the other changes the refractive index at the surface.

For a further assay, the target named is IL6 (human, UniProt P05231 30-212). Nature of the assay: Biacore.
The target in another assay is MBP. Nature of the assay: Biacore.
The next assay has as its target GST. Description: Biacore.
In assay [1] the target is T2, human IL6 (human, UniProt P05231 30-212). Description: Biacore.
In assay [2] the target is T2, human IL6. Description: Biacore; captured on GMCSF.
In assay [3] the target is T2, human IL6. Description: Biacore; captured on anti-LC.

The text below walks through data of patent US20140206846A1 (published 2014).

A word on the koff: it is a measure of how fast the partners let go of each other. For orientation: Kd means the concentration at which binding is half-saturated. A low value points to tighter binding.

Substitutions are numbered along the chain they refer to.

T2 sequence (P05231 30-212): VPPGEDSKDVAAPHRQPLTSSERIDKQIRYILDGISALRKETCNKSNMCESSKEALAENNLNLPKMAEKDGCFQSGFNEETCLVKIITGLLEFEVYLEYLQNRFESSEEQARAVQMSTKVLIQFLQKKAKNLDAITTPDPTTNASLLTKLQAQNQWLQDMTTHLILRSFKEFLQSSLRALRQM
IL6, sequence (P05231 30-212): as above

B1: IL6 P (Fab, V domains shown)
VH: EVQLVESGGGLVQPGGSLRLSCAASGFTFSSYAMSWIRQAPGKGLEWIGQISGSGGSTVYNYNVLGRFTISRDNSKNTLYLQMNSLRAEDTAVYYCARDSGYFDIWGQGTLVTVSS
VL: NIQKTQSPSSLSASVGDRVTITCRALWHISSYLAWYQQKPGKAPKLLIYAASSLYSGVPSRFSGSGSGTDFTLTISSLQPEDFATYYCQQYSGLPYTFGQGTKVEIKR
Take B1: the koff with VEGF amounted to 0.00204 s⁻¹; with IL6, 0.00413 s⁻¹.

B2: Fab DT3 (bispecific antibody, V domains shown)
VH: B1 VH with E1W, S25R, T28P, S31H, V59W, Y62H, N63D, V64I, L65K, I105W
VL: GIQMTQSPSSLSASVGDRVTITCRARWYISSYLAWYQQKPGKAPKLLIFAASRLILNVPSRFSGSGSGKDFTLTISSLQPEDFATYYCQQYSELPYTFGQGTKVEIK
B2: the figures for the Kd in the assay with MBP and with GST were 313 nM and 17 nM, respectively.

B3: VH6L (bispecific antibody, V domains shown)
VH: B1 VH with E1Y, V2Y, S25D, T28L, S31G, S100T, I105H
VL: NIQKTQSPSSLSASVGDRVTITCRALWHISSYLAWYQQKPGKAPKLLIYAASHLHYGVPSRFSGSGSGTDFTLTISSLQPEDFATYYCQQYSGLPYTFGQGTKVEIK
With B3, the dissociation rate constant (koff) in the assay with human IL6 [1] came to 0.00472 s⁻¹.

B4: GH6L (bispecific antibody, V domains shown)
VH: B1 VH with E1W, S25K, F27A, T28L, S31T
VL: B3 VL with N1A, I2T, K4R, H53W, H55Y, Y56W, G57D
For the molecule B4, the dissociation constant (Kd) with human IL6 [2] was 18.7 nM; with human IL6 [3] it was 30.4 nM.
